According to the Human Domainome abundance scans (Beltran et al. 2025):
± gives the uncertainty stated by the source.

B1: SWI/SNF complex subunit SMARCC1, residues 620 to 663; numbered along this chain, Q92922 (parent)
chain: GREWTEQETLLLLEALEMYKDDWNKVSEHVGSRTQDECILHFLR

Variants of: B1
Test: abundance fitness (aPCA) (normalised: wild type 0, dead -1); higher = more abundant; growth selection in yeast, the domain comes from the species named
Conditions: Homo sapiens

Abundance fitness of substitutions, site by site:
S27: Y -0.305 ± 0.13 | I -0.149 ± 0.13 | R 0.01 ± 0.068 | G 0.056 ± 0.068 | C -0.119 ± 0.1 | D -0.558 ± 0.14 | E 0.105 ± 0.072 | N -0.204 ± 0.092 | F -0.516 ± 0.24 | W -0.56 ± 0.15 | M -0.248 ± 0.11 | P -0.319 ± 0.081 | A 0.168 ± 0.076 | H 0.063 ± 0.072 | V 0.039 ± 0.076 | L -0.375 ± 0.13 | Q 0.246 ± 0.1 | K 0.145 ± 0.071
K20: A -0.139 ± 0.064 | L -0.618 ± 0.089 | G -0.188 ± 0.06 | R -0.234 ± 0.062 | P 0.058 ± 0.064 | E -0.085 ± 0.1 | F -0.226 ± 0.11 | T -0.14 ± 0.073 | M -0.118 ± 0.12 | I -0.019 ± 0.1 | N -0.105 ± 0.11 | D -0.062 ± 0.1 | C -0.375 ± 0.09 | W -0.737 ± 0.13 | H 0.021 ± 0.1 | V -0.123 ± 0.062 | Q -0.278 ± 0.086 | S -0.2 ± 0.059
L11: R -0.139 ± 0.063 | N -0.304 ± 0.093 | K 0.021 ± 0.095 | G -0.154 ± 0.074 | W -0.258 ± 0.11 | D -0.19 ± 0.12 | A -0.134 ± 0.091 | I -0.29 ± 0.088 | T 0.016 ± 0.06 | P -0.58 ± 0.097 | M 0.138 ± 0.076 | C -0.521 ± 0.18 | V -0.064 ± 0.08 | F -0.096 ± 0.09 | S 0.024 ± 0.057 | E -0.281 ± 0.1
A15: L -0.926 ± 0.13 | G 0.03 ± 0.056 | K -0.925 ± 0.24 | H -0.707 ± 0.18 | R -0.82 ± 0.14 | E -0.716 ± 0.16 | S -0.043 ± 0.058 | P -1.19 ± 0.34 | Y -0.746 ± 0.24 | F -0.616 ± 0.29 | V -0.886 ± 0.11 | Q -0.72 ± 0.34 | D -0.562 ± 0.44
E28: C -0.2 ± 0.12 | L -0.31 ± 0.08 | H -0.723 ± 0.31 | K -0.269 ± 0.11 | G -0.112 ± 0.085 | Y -0.404 ± 0.13 | I -0.16 ± 0.19 | M -0.8 ± 0.21 | N -0.21 ± 0.14 | W 0.08 ± 0.32 | D 0.373 ± 0.27 | R -0.013 ± 0.066 | Q -0.181 ± 0.078 | V -0.311 ± 0.083 | T -0.084 ± 0.078 | A -0.434 ± 0.097
N24: R -0.032 ± 0.057 | Y -0.097 ± 0.088 | T -0.029 ± 0.069 | E 0.042 ± 0.096 | C -0.001 ± 0.077 | W -0.168 ± 0.079 | I -0.13 ± 0.16 | G 0.075 ± 0.061 | M 0.065 ± 0.084 | A 0.027 ± 0.062 | H 0.006 ± 0.078 | S 0.119 ± 0.052 | L 0.013 ± 0.056 | K 0.155 ± 0.084 | D 0.024 ± 0.096 | Q 0.173 ± 0.11 | P 0.045 ± 0.072
E14: Q -0.045 ± 0.1 | H -0.311 ± 0.1 | L -0.549 ± 0.1 | T -0.18 ± 0.091 | S -0.27 ± 0.068 | V -0.552 ± 0.17 | K -0.006 ± 0.12 | I -0.97 ± 0.44 | P -1.15 ± 0.48 | D -0.177 ± 0.27 | G -0.27 ± 0.075 | Y -0.428 ± 0.2 | M -0.267 ± 0.096 | N -0.164 ± 0.12 | A 0.007 ± 0.072 | C -0.684 ± 0.16 | R -0.28 ± 0.12
L10: R 0.158 ± 0.056 | H 0.084 ± 0.074 | P -0.287 ± 0.079 | N -0.247 ± 0.42 | I -0.016 ± 0.32 | F -0.008 ± 0.077 | C 0.243 ± 0.11 | T 0.237 ± 0.069 | Q 0.251 ± 0.072 | V -0.04 ± 0.06 | E 0.082 ± 0.069 | S 0.147 ± 0.065 | A -0.019 ± 0.067 | M -0.21 ± 0.13 | K 0.176 ± 0.057 | Y -0.407 ± 0.18 | W -0.137 ± 0.083
L16: Q 0.428 ± 0.075 | A 0.16 ± 0.051 | F -0.231 ± 0.083 | D -0.237 ± 0.093 | R 0.469 ± 0.052 | H 0.303 ± 0.073 | E 0.274 ± 0.073 | P -0.77 ± 0.11 | T 0.316 ± 0.058 | M 0.235 ± 0.08 | Y 0.334 ± 0.063 | S 0.094 ± 0.063 | I 0.079 ± 0.091 | C 0.197 ± 0.057 | V 0.224 ± 0.058 | N 0.136 ± 0.072 | G -0.05 ± 0.069 | W 0.024 ± 0.082
E8: Q -0.098 ± 0.1 | V -1 ± 0.22 | S -1.01 ± 0.14 | Y -1.21 ± 0.23 | T -0.651 ± 0.16 | W -1.06 ± 0.33
H29: M -0.209 ± 0.09 | I -0.469 ± 0.44 | N -0.173 ± 0.13 | L -0.264 ± 0.074 | G -0.803 ± 0.17 | E -0.551 ± 0.25 | F -0.201 ± 0.12 | C -0.382 ± 0.12
V26: R -0.424 ± 0.091 | A 0.006 ± 0.083 | N -0.533 ± 0.41 | W -0.494 ± 0.19 | I -0.051 ± 0.19 | D -0.768 ± 0.21 | H -0.683 ± 0.2 | T 0.029 ± 0.11 | E -0.406 ± 0.17 | Y -0.57 ± 0.26 | Q -0.533 ± 0.21 | C 0.543 ± 0.29 | G -0.686 ± 0.21 | L -0.513 ± 0.09 | P -0.919 ± 0.22
W23: D -0.374 ± 0.15 | H -0.696 ± 0.2 | N -0.579 ± 0.13 | V -0.783 ± 0.13 | E -0.577 ± 0.15 | L -0.528 ± 0.086 | G -0.631 ± 0.077 | K -0.503 ± 0.44 | M -0.32 ± 0.11 | C -0.48 ± 0.089 | A -0.712 ± 0.12 | I -0.255 ± 0.23 | T -0.786 ± 0.12 | P -0.535 ± 0.11 | F -0.186 ± 0.14
Y19: T -0.298 ± 0.087 | G -0.108 ± 0.059 | M -0.62 ± 0.16 | K -0.263 ± 0.14 | W -0.081 ± 0.075 | P -0.952 ± 0.19 | E -0.216 ± 0.13 | H 0.062 ± 0.14 | R -0.55 ± 0.086 | S -0.362 ± 0.097 | V -0.69 ± 0.18 | C 0.09 ± 0.099 | Q -0.423 ± 0.13 | I -0.693 ± 0.15 | D -0.218 ± 0.15 | L -0.776 ± 0.19
L13: Y -0.229 ± 0.42 | Q -0.197 ± 0.18 | D 0.01 ± 0.22 | H -0.166 ± 0.12 | V -0.126 ± 0.18 | A 0.285 ± 0.18 | W -0.314 ± 0.45 | R 0.127 ± 0.11 | I 0.044 ± 0.24 | T 0.531 ± 0.24 | S -0.259 ± 0.31
D21: E 0.225 ± 0.071 | S -0.078 ± 0.088 | T -0.17 ± 0.14 | A -0.066 ± 0.068 | W -0.578 ± 0.23 | K 0.294 ± 0.076 | M -0.363 ± 0.17 | Q 0.067 ± 0.08 | N 0.227 ± 0.16 | P 0.019 ± 0.13 | R 0.268 ± 0.059 | I -0.601 ± 0.34 | H 0.102 ± 0.087 | V -0.419 ± 0.094 | G -0.046 ± 0.088
D22: I -0.733 ± 0.17 | V -0.526 ± 0.14 | Q -0.112 ± 0.073 | S 0.04 ± 0.1 | Y -0.714 ± 0.16 | L -0.44 ± 0.12 | C -0.122 ± 0.098 | G -0.419 ± 0.097 | A -0.447 ± 0.096 | H -0.264 ± 0.14 | E -0.017 ± 0.1 | T -0.581 ± 0.33
M18: P -0.583 ± 0.41 | T 0.1 ± 0.17 | F -0.1 ± 0.094 | K -0.076 ± 0.089 | L 0.063 ± 0.067 | R 0.142 ± 0.069 | V -0.002 ± 0.067 | E -0.135 ± 0.11 | G -0.24 ± 0.074 | I -0.264 ± 0.23 | D -0.097 ± 0.25 | H -0.04 ± 0.084 | N -0.018 ± 0.25 | W -0.2 ± 0.11 | A 0.115 ± 0.069 | C -0.158 ± 0.14 | S -0.168 ± 0.076 | Q 0.056 ± 0.077 | Y -0.129 ± 0.13
E17: R -0.007 ± 0.058 | A -0.087 ± 0.072 | F -0.548 ± 0.33 | D 0.054 ± 0.092 | T -0.175 ± 0.14 | S -0.308 ± 0.082 | I -0.553 ± 0.2 | K 0.139 ± 0.14 | W -0.716 ± 0.14 | G -0.213 ± 0.064 | Q -0.033 ± 0.11 | M -0.722 ± 0.2 | V -0.503 ± 0.1 | H -0.357 ± 0.18 | C -0.763 ± 0.19
K25: P -0.377 ± 0.083 | C -0.064 ± 0.075 | S -0.011 ± 0.062 | I -0.426 ± 0.13 | M 0.194 ± 0.16 | H -0.045 ± 0.096 | N -0.245 ± 0.22 | W -0.562 ± 0.13 | T -0.129 ± 0.088 | R 0.072 ± 0.067 | L 0.072 ± 0.056 | A 0.091 ± 0.061 | Q -0.122 ± 0.07 | E -0.14 ± 0.11 | Y -0.473 ± 0.12 | D -0.331 ± 0.11 | G -0.038 ± 0.055
L12: K -0.428 ± 0.13 | M -0.32 ± 0.14 | N -0.938 ± 0.17 | C -0.401 ± 0.15 | S -0.651 ± 0.11 | H -0.413 ± 0.076 | V -0.341 ± 0.11 | Q -0.372 ± 0.14 | A -0.213 ± 0.076 | G 0.009 ± 0.12 | F 0.016 ± 0.074 | R -0.718 ± 0.17 | Y -0.103 ± 0.095 | E -0.129 ± 0.17 | T -0.602 ± 0.11 | D -0.259 ± 0.17 | P -0.709 ± 0.28
T9: S -0.01 ± 0.076 | I 0.264 ± 0.14 | W -0.595 ± 0.3 | A -0.085 ± 0.089 | N -0.04 ± 0.079 | C -0.015 ± 0.12 | H -0.023 ± 0.15 | L -0.044 ± 0.062 | G -0.098 ± 0.079 | M 0.037 ± 0.11 | F 0.004 ± 0.074 | Q 0.319 ± 0.13 | K 0.158 ± 0.1 | E -0.037 ± 0.091 | R 0.252 ± 0.068 | P -0.449 ± 0.13 | D -0.075 ± 0.24 | Y -0.022 ± 0.094
